Where a chain is given by its changes, count along the chain named.
B1: IL13R(ECD)-IL4R(ECD)-wild type canine IgG-B Fc (Fc fusion)
chain: TETQPPVTNLSVSVENLCTVIWTWDPPEGASPNCTLRYFSHFDNKQDKKIAPETHRSKEVPLNERICLQVGSQCSTNESDNPSILVEKCTPPPEGDPESAVTELQCVWHNLSYMKCTWLPGRNTSPDTNYTLYYWHSSLGKILQCEDIYREGQHIGCSFALTNLKDSSFEQHSVQIVVKDNAGKIRPSFNIVPLTSHVKPDPPHIKRLFFQNGNLYVQWKNPQNFYSRCLSYQVEVNNSQTETNDIFYVEEAKCQNSEFEGNLEGTICFMVPGVLPDTLNTVRIRVRTNKLCYEDDKLWSNWSQAMSIGENTDPTGGGSGSGSVKVLHEPSCFSDYISTSVCQWKMDHPTNCSAELRLSYQLDFMGSENHTCVPENREDSVCVCSMPIDDAVEADVYQLDLWAGQQLLWSGSFQPSKHVKPRTPGNLTVHPNISHTWLLMWTNPYPTENHLHSELTYMVNVSNDNDPEDFKVYNVTYMGPTLRLAASTLKSGASYSARVRAWAQTYNSTWSDWSPSTTWLNYYEPKRENGRVPRPPDCPKCPAPEMLGGPSVFIFPPKPKDTLLIARTPEVTCVVVDLDPEDPEVQISWFVDGKQMQTAKTQPREEQFNGTYRVVSVLPIGHQDWLKGKQFTCKVNNKALPSPIERTISKARGQAHQPSVYVLPPSREELSKNTVSLTCLIKDFFPPDIDVEWQSNGQQEPESKYRTTPPQLDEDGSYFLYSKLSVDKSRWQRGDTFICAVMHEALHNHYTQESLSHSPGK
notes: also called fusion protein comprising wild-type canine IgG-B Fc
B2: IL13R(ECD)-IL4R(ECD)-variant canine IgG-B Fc (Fc fusion)
chain: B1 chain with K634R
notes: also called fusion protein comprising variant canine IgG-B Fc K(93)R

Tests used:
[1] = target: T1, human C1q (human, UniProt P02745 23-245; P02746 28-253; P02747 29-245); assay: biosensor; fusion captured on IL4-bound tips, human C1q at 250 µg/mL
T1 construct: Bought protein complex; the three subunit chains come from general knowledge; also called C1q complex
Protocol: (§1) A biosensor binding analysis was performed to determine the binding affinity of C1q to IL13R(ECD)-IL4R(ECD)-wild type canine IgG-B Fc (SEQ ID NO: 271) compared to IL13R(ECD)-IL4R(ECD)-variant canine IgG-B Fc (SEQ ID NO: 202). Briefly canine IL4 was biotinylated and captured to streptavidin sensor tips. Either IL13R(ECD)-IL4R(ECD)-wild type canine IgG-B Fc (25 μg/mL) or IL13R(ECD)-IL4R(ECD)-variant canine IgG-B Fc (25 μg/mL) was complexed to the IL4-bound biosensors. Subsequently, the complex was used to bind human C1q at 250 μg/mL (Catalog No. 204876-1MG; Sigma Aldrich). The ability of human C1q to bind either complex was measured. Reduced binding between human C1q and IL13R(ECD)-IL4R(ECD)-variant canine IgG-B Fc was observed when compared to IL13R(ECD)-IL4R(ECD)-wild type canine IgG-B Fc.

[2] = target: T2, canine IL4 (canine, UniProt O77762 25-132, biotinylated (site not stated)); assay: biosensor; biotinylated canine IL4 on streptavidin tips, fusion at 25 µg/mL
T2 construct: Biotinylated and captured on streptavidin sensor tips
T2 sequence (looked up): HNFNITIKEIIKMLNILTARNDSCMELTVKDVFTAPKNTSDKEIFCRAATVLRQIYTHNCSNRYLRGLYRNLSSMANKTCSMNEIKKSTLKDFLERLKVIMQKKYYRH
Protocol: as §1

T1 sequence (P02745 23-245 limits assumed, chain 1 of 3): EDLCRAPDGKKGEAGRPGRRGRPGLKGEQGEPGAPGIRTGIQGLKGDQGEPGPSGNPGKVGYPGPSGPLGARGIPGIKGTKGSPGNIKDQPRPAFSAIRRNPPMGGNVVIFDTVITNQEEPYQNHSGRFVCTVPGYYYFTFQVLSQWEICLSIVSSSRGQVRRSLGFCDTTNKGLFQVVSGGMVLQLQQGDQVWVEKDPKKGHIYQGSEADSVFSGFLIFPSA
T1 sequence (P02746 28-253 limits assumed, chain 2 of 3): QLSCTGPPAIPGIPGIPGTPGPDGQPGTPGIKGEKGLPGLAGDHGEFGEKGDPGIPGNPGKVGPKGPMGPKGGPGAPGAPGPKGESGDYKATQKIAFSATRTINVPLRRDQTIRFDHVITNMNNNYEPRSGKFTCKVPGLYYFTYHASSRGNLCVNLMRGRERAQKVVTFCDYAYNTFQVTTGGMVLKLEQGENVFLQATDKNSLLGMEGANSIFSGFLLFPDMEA
T1 sequence (P02747 29-245 limits assumed, chain 3 of 3): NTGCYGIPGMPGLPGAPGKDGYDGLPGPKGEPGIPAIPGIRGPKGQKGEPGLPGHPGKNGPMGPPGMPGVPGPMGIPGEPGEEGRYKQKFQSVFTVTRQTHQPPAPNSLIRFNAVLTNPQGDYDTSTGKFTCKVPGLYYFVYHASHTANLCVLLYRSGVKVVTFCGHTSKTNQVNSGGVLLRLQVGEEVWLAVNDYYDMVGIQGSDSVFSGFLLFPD

Binder	binding result [1]	binding result [2]
B1	binds	binds
B2	binds	binds
